Results taken from PMC2196205.

Key:
Zif268 [1] = biological target: T1, Zif268 (mouse, UniProt P08046 333-421); assay: ELISA
Zif268 [2] = biological target: T1, Zif268; assay: SPR
Zif268 [3] = biological target: T1, Zif268; assay: SPR; remark: listed apart in the source

B1: ZifDNA (dsDNA)
DNA 1: GGCATAGTGCGTGGGCGTTAGC
DNA 2: GCTAACGCCCACGCACTATGCC
With B1 the Kd (Zif268 [1]) was 12 ± 5 nM and the Kd (Zif268 [2]) was 5.3 ± 1.5 nM.

GGTTAGGGTTAGGGTTAGGGTTAGGGTTAG (structured_DNA) [Htelo]: no binding (Zif268 [3]).
